biological target: human CD40 on cells (human, UniProt P25942 21-277); test: cell-based or functional assay
Sequence (P25942 21-277 limits assumed): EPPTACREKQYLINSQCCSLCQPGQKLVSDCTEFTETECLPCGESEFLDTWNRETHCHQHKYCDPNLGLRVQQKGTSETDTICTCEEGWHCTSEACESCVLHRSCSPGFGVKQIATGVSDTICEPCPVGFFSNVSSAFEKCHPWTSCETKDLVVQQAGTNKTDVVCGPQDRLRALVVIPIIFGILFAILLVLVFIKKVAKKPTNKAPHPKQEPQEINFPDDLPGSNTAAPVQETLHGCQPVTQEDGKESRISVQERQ

Binder	IC50, HEK-Blue CD40L NF-κB activation assay (SEAP), antibody as human IgG4
D22 (antibody, human IgG4, V domains shown) VH: QVQLVQSGAEVKKPGASVKVSCKASVYSFTGYTVNWVRQAPGQRLEWMGLINPYTGGTTYNQKFKGRVTLTIDKSASTAYMELSSLRSEDTAVYYCASSYYSKPYAMDYWGQGTLVTVSS VL: EIVMTQSPATLSVSPGERATLSCKASQNVHTRVAWYQQKPGQAPRLLIYLASDRRTGIPARFSGSGSGTEFTLTISSLQSEDFAVYYCLQHWTYPLTFGQGTKVEIK	0.0219 µg/mL
D23 (antibody, human IgG4, V domains shown) VH: QVQLVQSGAEVKKPGASVKVSCKASVYGFTGYTVNWVRQAPGQRLEWMGLINPYNGGTTYNQKFKGRVTLTIDKSASTAYMELSSLRSEDTAVYYCASSYYSNPYANDYWGQGTLVTVSS VL: EIVMTQSPATLSVSPGERATLSCKASQNVHTAVAWYQQKPGQAPRLLIYLRSDRRTGIPARFSGSGSGTEFTLTISSLQSEDFAVYYCLQAWNYPLTFGQGTKVEIK	0.0169 µg/mL
D36 (antibody, human IgG4, V domains shown) VH: QVQLVQSGAEVKKPGASVKVSCKASVYSFTGYTVNWVRQAPGQRLEWMGLINPYNGGTTYNQKFKGRVTLTIDKSASTAYMELSSLRSEDTAVYYCASSRYSNPYAMDYWGQGTLVTVSS VL: EIVMTQSPATLSVSPGERATLSCKASQNVHTHVAWYQQKPGQAPRLLIYLASDRRTGIPARFSGSGSGTEFTLTISSLQSEDFAVYYCLQHWNYPLTFGQGTKVEIK	0.0212 µg/mL
D45 (antibody, human IgG4, V domains shown) VH: QVQLVQSGAEVKKPGASVKVSCKASVYSFTGYTVNWVRQAPGQRLEWMGLINPYNGGTSYNQKFKGRVTLTIDKSASTAYMELSSLRSEDTAVYYCASSIYSNPYAMDYWGQGTLVTVSS VL: EIVMTQSPATLSVSPGERATLSCKASQNVHTRVAWYQQKPGQAPRLLIYLASDRRTGIPARFSGSGSGTEFTLTISSLQSEDFAVYYCLQHWNQPLTFGQGTKVEIK	0.0157 µg/mL
D44 (antibody, human IgG4, V domains shown) VH: QVQLVQSGAEVKKPGASVKVSCKASVYSFTGYTVNWVRQAPGQRLEWMGLINPYNGGTTYNQKFKGRVTLTIDKSASTAYMELSSLRSEDTAVYYCASSYYSLPYAMDYWGQGTLVTVSS VL: EIVMTQSPATLSVSPGERATLSCKASQNVHTRVAWYQQKPGQAPRLLIYLASDRRTGIPARFSGSGSGTEFTLTISSLQSEDFAVYYCLQHWNYPLTFGQGTKVEIK	0.0201 µg/mL
D32 (antibody, human IgG4, V domains shown) VH: QVQLVQSGAEVKKPGASVKVSCKASVYSFTGYTVNWVRQAPGQRLEWMGLINPYHGGTTYNQKFKGRVTLTIDKSASTAYMELSSLRSEDTAVYYCASSSYSNPYAMDYWGQGTLVTVSS VL: EIVMTQSPATLSVSPGERATLSCKASQNVHTRVAWYQQKPGQAPRLLIYLASDRRTGIPARFSGSGSGTEFTLTISSLQSEDFAVYYCLQHWNYPLTFGQGTKVEIK	0.0164 µg/mL
D24 (antibody, human IgG4, V domains shown) VH: QVQLVQSGAEVKKPGASVKVSCKASVYSFTGYTVNWVRQAPGQRLEWMGLINPKNGGTTYNQKFKGRVTLTIDKSASTAYMELSSLRSEDTAVYYCASSLYSNPYAMDYWGQGTLVTVSS VL: EIVMTQSPATLSVSPGERATLSCKASQNVHTRVAWYQQKPGQAPRLLIYLASDRRTGIPARFSGSGSGTEFTLTISSLQSEDFAVYYCLQHWNYPLTFGQGTKVEIK	0.0164 µg/mL
D41 (antibody, human IgG4, V domains shown) VH: QVQLVQSGAEVKKPGASVKVSCKASVYSFTGYTVNWVRQAPGQRLEWMGLINPYSGGTTYNQKFKGRVTLTIDKSASTAYMELSSLRSEDTAVYYCASSPYSNPYAMDYWGQGTLVTVSS VL: EIVMTQSPATLSVSPGERATLSCKASQNVHTRVAWYQQKPGQAPRLLIYLASDRRTGIPARFSGSGSGTEFTLTISSLQSEDFAVYYCLQHWNAPLTFGQGTKVEIK	0.0194 µg/mL
D34 (antibody, human IgG4, V domains shown) VH: QVQLVQSGAEVKKPGASVKVSCKASVYSFTGYTVNWVRQAPGQRLEWMGLINPYNGGTTYNQKFKGRVTLTIDKSASTAYMELSSLRSEDTAVYYCASSYYSRPYAMDYWGQGTLVTVSS VL: EIVMTQSPATLSVSPGERATLSCKASQNVHTRVAWYQQKPGQAPRLLIYLASDRRTGIPARFSGSGSGTEFTLTISSLQSEDFAVYYCLQHWSYPLTFGQGTKVEIK	0.0338 µg/mL
D31 (antibody, human IgG4, V domains shown) VH: QVQLVQSGAEVKKPGASVKVSCKASVYSFTGYTVNWVRQAPGQRLEWMGLINPYNGGTSYNQKFKGRVTLTIDKSASTAYMELSSLRSEDTAVYYCASSYYSNPYAADYWGQGTLVTVSS VL: EIVMTQSPATLSVSPGERATLSCKASQNVHTRVAWYQQKPGQAPRLLIYLASDRRTGIPARFSGSGSGTEFTLTISSLQSEDFAVYYCLQHWNYPLTFGQGTKVEIK	0.0139 µg/mL
D43 (antibody, human IgG4, V domains shown) VH: QVQLVQSGAEVKKPGASVKVSCKASVYSFTGYTVNWVRQAPGQRLEWMGLINPTNGGTSYNQKFKGRVTLTIDKSASTAYMELSSLRSEDTAVYYCASSYYSNPYASDYWGQGTLVTVSS VL: EIVMTQSPATLSVSPGERATMSCKASQNVHTRVAWYQQKPGQAPRLLIYLASDRRTGIPARFSGSGSGTEFTLTISSLQSEDFAVYYCLQHWNYPLTFGQGTKVEIK	0.0168 µg/mL
D37 (antibody, V domains shown) VH: QVQLVQSGAEVKKPGASVKVSCKASVYSFTGYTVNWVRQAPGQRLEWMGLIAPYNGGTTYNQKFKGRVTLTIDKSASTAYMELSSLRSEDTAVYYCALSYYSNPYAMDYWGQGTLVTVSS VL: EIVMTQSPATLSVSPGERATLSCKASQNVHTRVAWYQQKPGQAPRLLIYLASDRRTGIPARFSGSGSGTEFTLTISSLQSEDFAVYYCLQHWNYPLTFGQGTKVEIK	0.0211 µg/mL
D25 (antibody, human IgG4, V domains shown) VH: QVQLVQSGAEVKKPGASVKVSCKASVYSFTGYVVNWVRQAPGQRLEWMGLINPYNGGTTYNQKFKGRVTLTIDKSASTAYMELSSLRSEDTAVYYCASSYYSNPYAMDYWGQGTLVTVSS VL: EIVMTQSPATLSVSPGERATLSCKASQNVHTAVAWYQQKPGQAPRLLIYLASDRRTGIPARFSGSGSGTEFTLTISSLQSEDFAVYYCLQHWNYPLTFGQGTKVEIK	0.0273 µg/mL
D40 (antibody, human IgG4, V domains shown) VH: QVQLVQSGAEVKKPGASVKVSCKASVYSFTGYTVNWVRQAPGQRLEWMGLINPYTGGTTYNQKFKGRVTLTIDKSASTAYMELSSLRSEDTAVYYCASSYWSNPYAMDYWGQGTLVTVSS VL: EIVMTQSPATLSVSPGERATLSCKASQNVHTRVAWYQQKPGQAPRLLIYLASDRRTGIPARFSGSGSGTEFTLTISSLQSEDFAVYYCLQHWNYPLTFGQGTKVEIK	0.0142 µg/mL
D30 (antibody, human IgG4, V domains shown) VH: QVQLVQSGAEVKKPGASVKVSCKASVYSFTGYTVNWVRQAPGQRLEWMGLINPYNGGTWYNQKFKGRVTLTIDKSASTAYMELSSLRSEDTAVYYCASSMYSNPYAMDYWGQGTLVTVSS VL: EIVMTQSPATLSVSPGERATLSCKASQNVHTRVAWYQQKPGQAPRLLIYLASDRRTGIPARFSGSGSGTEFTLTISSLQSEDFAVYYCLQHWNYPLTFGQGTKVEIK	0.018 µg/mL
D39 (antibody, human IgG4, V domains shown) VH: QVQLVQSGAEVKKPGASVKVSCKASVYSFTGYTVNWVRQAPGQRLEWMGLINPYNGGTTYNQKFKGRVTLTIDKSASTAYMELSSLRSEDTAVYYCASSYYSNPYAQDYWGQGTLVTVSS VL: EIVMTQSPATLSVSPGERATLSCKASQNVHTRVAWYQQKPGQAPRLLIYLASDRRTGIPARFSGSGSGTEFTLTISSLQSEDFAVYYCLQHWNYPLTFGQGTKVEIK	0.03 µg/mL
D29 (antibody, human IgG4, V domains shown) VH: QVQLVQSGAEVKKPGASVKVSCKASVYSFTGYTVNWVRQAPGQRLEWMGLINPMNGGTTYNQKFKGRVTLTIDKSASTAYMELSSLRSEDTAVYYCASSYYSNPYAGDYWGQGTLVTVSS VL: EIVMTQSPATLSVSPGERATLSCKASQNVHTRVAWYQQKPGQAPRLLIYLASDRRTGIPARFSGSGSGTEFTLTISSLQSEDFAVYYCLQHWNRPLTFGQGTKVEIK	0.0342 µg/mL
D38 (antibody, human IgG4, V domains shown) VH: QVQLVQSGAEVKKPGASVKVSCKASVYSFTGYTVNWVRQAPGQRLEWMGMINPYNGGTTYNQKFKGRVTLTIDKSASTAYMELSSLRSEDTAVYYCASSYYSVPYAMDYWGQGTLVTVSS VL: EIVMTQSPATLSVSPGERATLSCKASQNVHTRVAWYQQKPGQAPRLLIYLASDRRTGIPARFSGSGSGTEFTLTISSLQSEDFAVYYCLQHWNYPLTFGQGTKVEIK	0.0156 µg/mL
D35 (antibody, human IgG4, V domains shown) VH: QVQLVQSGAEVKKPGASVKVSCKASVYSFTGYLVNWVRQAPGQRLEWMGLINPYNGGTTYNQKFKGRVTLTIDKSASTAYMELSSLRSEDTAVYYCASSYYSNPYAMDYWGQGTLVTVSS VL: EIVMTQSPATLSVSPGERATLSCKASQNVHTAVAWYQQKPGQAPRLLIYLASDRRTGIPARFSGSGSGTEFTLTISSLQSEDFAVYYCLQHWNYPLTFGQGTKVEIK	0.0233 µg/mL
D27 (antibody, human IgG4, V domains shown) VH: QVQLVQSGAEVKKPGASVKVSCKASVYSFTGYTVNWVRQAPGQRLEWMGLIVPYNGGTTYNQKFKGRVTLTIDKSASTAYMELSSLRSEDTAVYYCASSGYSNPYAMDYWGQGTLVTVSS VL: EIVMTQSPATLSVSPGERATLSCKASQNVHTNVAWYQQKPGQAPRLLIYLASDRRTGIPARFSGSGSGTEFTLTISSLQSEDFAVYYCLQHWNYPLTFGQGTKVEIK	0.0298 µg/mL
D28 (antibody, human IgG4, V domains shown) VH: QVQLVQSGAEVKKPGASVKVSCKASVYSFTGYTVNWVRQAPGQRLEWMGLINPYSGGTTYNQKFKGRVTLTIDKSASTAYMELSSLRSEDTAVYYCASSYYSRPYAMDYWGQGTLVTVSS VL: EIVMTQSPATLSVSPGERATLSCKASQNVHTRVAWYQQKPGQAPRLLIYLASDRRTGIPARFSGSGSGTEFTLTISSLQSEDFAVYYCLQHWNSPLTFGQGTKVEIK	0.0124 µg/mL
